From US20150285818A1, “Switchable Reporter Enzymes for Homogenous Antibody Detection” (TECHNISCHE UNIVERSITEIT EINDHOVEN, priority 2012, published 2015)

Assays:
[1] = target: …-GGG-C(fluorescein); test: fluorescence polarization, 2 nM labelled peptide titrated with antibody
[2] = target: …-GGG-C(fluorescein); test: fluorescence polarization, 2 nM fluorescein-labelled peptide titrated with antibody
[3] = target: WEKIRLR-GGG-C(fluorescein) (HIV1); test: fluorescence polarization, 10 nM fluorescein-labelled peptide titrated with antibody
[4] = target: …-GGG-C(fluorescein) (HIV1); test: as above
[5] = target: WEKIRLR-GGG-C(fluorescein) (HIV1); test: fluorescence polarization, 10 nM labelled peptide titrated with antibody
[6] = target: …-GGG-C(fluorescein) (HIV1); test: as above

Row | Substance | Kd [1] [nM] | EC50 (read off the curve) [2] [nM] | EC50 (read off the curve) [3] [nM] | EC50 (read off the curve) [4] [nM] | Kd [5] [nM] | Kd [6] [nM]
1 | HA monoclonal antibody (clone 2-2.2.14, Thermo Scientific) | 0.58 | 1 to 2 |  |  |  | 
2 | anti-HIV-1-p17 antibody (clone 32/1.24.89, Zeptometrix) |  |  | 3000 | 30 | 3300 | 24
